{"source": "patent US20250051458A1", "about": "“Methods for Treating Neurodegeneration Targeting IGF1/IGF1R” (The Schepens Eye Research Institute, Inc., priority 2021, published 2025)", "molecules": {"B1": {"name": "IGFBPL1: insulin-like growth factor binding protein like protein 1; recombinant protein (R&D system, 4130-BL) (protein)", "chain": "LGLRDAGRRHPECSPCQQDRCPAPSPCPAPWISARDECGCCARCLGAEGASCGGPVGSRCGPGLVCASRASGTAPEGTGLCVCAQRGAVCGSDGRSYSSICALRLRARHAPRAHHGHLHKARDGPCEFAPVVLMPPRDIHNVTGTQVFLSCEVKAVPTPVITWKKVKHSPEGTEGLEELPGDHVNIAVQVRGGPSDHETTSWILINPLRKEDEGVYHCHAANAIGEAQSHGTVTVLDLNRYKSLYSSVPGDLL"}}, "tested_on": "microbead-induced glaucoma mice", "assay_type": "in vivo, mouse", "description": "For whole mounted retina staining, mouse eyeballs were fixed in 4% paraformaldehyde for 3 hours at room temperature or overnight at 4° C. fridge after sacrificing mice with carbon dioxide (CO2). Then retinas were dissected out and incubated with blocking buffer (3% donkey serum+1% BSA+0.1% Triton+0.1% Tween in 1×PBS) for 1-3 h RT. Then retinas were subjected to immunolabeling by incubation with primary antibody (Table 1) overnight at 4° C. After washing three times by washing buffer (0.1% Triton-100 in PBS), retinas were incubated with secondary antibody at room temperature for 2 hrs. After rinsing retina three times in washing buffer for 5-10 min on shaker, mount slide with Fluoroshield Mounting Medium with DAPI (Abcam, Cat. No. ab104139). Visualize under microscope (Leica, SP8). Secondary antibody: Streptavidin, Alexa Fluor 546 conjugate (1:1000, S11225, Invitrogen), Streptavidin, Alexa Fluor 488 conjugate (1:1000, S11223, Invitrogen), Cy2 Donkey Anti-rabbit (1:1000, 711-225-152, Jackson ImmunoResearch), Cy3 Donkey Anti-mouse (1:1000, 715-165-150, Jackson ImmunoResearch), Cy3 Donkey Anti-goat (1:1000, 705-165-147, Jackson ImmunoResearch).\nTotal RNA was extracted from retinas of adult mice or purified retinal microglial cells using RNeasy Plus Mini kit (Qiagen, 74134) or RNeasy Micro kit (Qiagen, 74004) following manufacturer's instruction. The RNA was reversely transcribed using Takara PrimeScript™ RT Master Mix (Takara Bio, RR036A). A mixture of master mix contained cDNA, 2× Master Mix from KAPA SYBR Fast qPCR kit and […] of specific primers was used to detect specific mRNA expression level using the Mastercycler ep realplex real-time PCR system (Eppendorf, Westbury, NY). The temperature of initial denaturation was set at 95° C. for 2 mins followed by 45 cycles of 15 seconds denaturation (95° C.), 15 seconds annealing (59° C.), and 20 seconds extension (68° C.), and lastly holding at 4° C. Relative amount of specific mRNA transcript was presented in fold changes by normalization to the expression level of the housekeeping gene glyceraldehyde 3-phosphate dehydrogenase (GAPDH). Expression was analyzed using the 2−ΔΔCt method. All primers were synthesized by Integrated DNA Technologies (USA).\nElevated IOP was induced unilaterally in adult mice (10-12 weeks old) as described previously^21. Briefly, the mice were anesthetized by i.p. injection of ketamine (120 mg/kg)/xylazine (20 mg/kg) mixture using 25-gauge needle. The pupil was dilated with tropical application of 1% Tropicamide followed by proparacaine HCl (0.5%; Baush & Lomb Incorporated, Tampa, FL) to numb the eye. An entry on the corneal was generated by a 30-gauge needle, and a small air bubble was injected into anterior chamber via a glass micropipette which was connected with a Hamilton syringe. 2 μl solution of 10 μm microspheres (9.0×10^7 beads/ml sterile saline; Thermo Fisher Scientific, Cat. No. F8833) was injected into anterior chamber with care to avoid damaging the iris and the lens. The micropipette will be withdrawn slowly after delivery of microbeads. Antibiotic ointment will be applied topically on the cornea after the injection, and then leave the operated mice to recover on a warm pad and monitored every 15 minutes until awake and fully sternal.\nMice were anesthetized by isoflurane inhalation (2-4%; Webster Veterinary, Sterling, MA) delivered in 100% Oxygen with a precision Vaporizer. The IOP was measured by TonoLab tonometer (Colonial Medical Supply) before and post-MB injection. An average of 6 IOP readings will be taken as one reading. At least […] readings of IOP level will be taken per mouse eye, and the mean of 3 readings represents the IOP level of a mouse eye. Baseline level of IOP in anesthetized mice was measured before induction of elevated IOP. Then the IOP was measured twice a week after microbeads injection induced IOP elevation. The IOP was measured at the same time in the morning to minimize the circadian variation. […]", "key": {"[1]": {"conditions": "14 days post glaucoma induction"}, "[2]": {"conditions": "intravitreal at day 3, 10 and 17 post IOP elevation"}}}
{"molecule": "B1", "values": [{"measurement": "Contrast sensitivity (CS) and visual acuity (VA) by optomotor response", "setting": "4- and 8-weeks post glaucoma induction", "value": "restored CS and VA"}, {"measurement": "Expression of pro-inflammatory cytokines (C1q, Tnfα, Il-1β, Il-1α) in glaucoma retina", "setting": "[1]", "value": "remarkably reduced"}, {"measurement": "Level of activated microglia markers (Iba-1, Ym-1, Nox-2, Cd163) in retina by qPCR", "setting": "[1]", "value": "dramatically down-regulate"}, {"measurement": "Reactive astrocyte number and GFAP level in retina", "setting": "day 14 post glaucoma induction", "value": "significantly restored"}, {"measurement": "RGC quantification compared with baseline", "setting": "[2]", "value": "no significant difference with baseline"}, {"measurement": "RGCs loss and dysfunction from glaucomatous damages", "setting": "[2]", "value": "significantly prevented RGCs loss and dysfunction"}, {"measurement": "IBA-1+ microglia activation (morphology, cell density) in retina", "setting": "intravitreal at day 3 and 10, 2 wks post glaucoma-induced injury", "value": "reverse activated microglia into resting state"}, {"measurement": "pSTR amplitude (ERG) compared with baseline", "setting": "mouse, in vivo", "value": "no significant difference with baseline"}]}
